Laboratory results as given in patent US20060057665A1, “Galectin-14 therapeutic molecule and uses thereof” (The University of Melbourne, priority 2001, published 2006).

What was measured:
[1] = test system: rabbit erythrocytes; assay: Hemagglutination assay on trypsin-treated, glutaraldehyde fixed rabbit erythrocytes; assay type: cell-based; conditions: for stability of agglutination activity upon storage: even in the presence of reducing agents
Method: Trypsin-treated, glutaraldehyde fixed rabbit erythrocytes were prepared and tested in an agglutination assay according to the method of Nowak et al. (Nowak et al. (1976) supra). Agglutination assays were performed in 96-well V-shaped microtiter plates with serial 2-fold dilutions of samples in 25 μl of DES (0.15 M NaCl, 2 mM EDTA, 2 mM dithiothreitol), 50 μl of 0.5% (w/v) BSA in 0.15 M NaCl and 25 μl of a 4% suspension of rabbit erythrocytes. The plates were shaken vigorously for 30 s, and agglutination was read after the plates had stood at room temperature for 1 h. Agglutinated erythrocytes formed a “mat” on the bottom of the well. For assessment of the inhibitory effects of saccharides, lactose, galactose, and N-acetyl-glucosamine were serially diluted in 25 μl of 0.15 M NaCl prior to the addition of recombinant protein in DES, 25 μl of 1% (w/v) BSA in 0.15 M NaCl, and 4% erythrocytes in PBS. The minimum concentration of GST-galectin-14 that gave mat formation (0.28 μM) was used in the saccharide inhibition assay. For assessment of the effects of antibody on GST-galectin-14 hemagglutination, ascites and supernatants from monoclonal antibodies and polyclonal rabbit sera all raised to recombinant galectin-14 were serially diluted in 25 μl of 0.15 M NaCl prior to the addition of recombinant protein in DES, 25 μl of 1% (w/v) BSA in 0.15 M NaCl, and 4% erythrocytes in PBS. A different batch of GST-galectin-14, which produced mat formation at a minimum concentration of 0.059 μM, was used at 0.059 μM and 0.042 μM to measure both inhibition and potentiation of agglutination by antibodies.

[2] = biological target: T1, laminin from Engelbreth-Holm-Swarm murine sarcoma (Mus musculus, UniProt P02468+P02469+P19137); assay: Solid-phase laminin binding assay; conditions: serial dilutions; detected with anti-GST HRP antibody, absorbance 450 nm
T1 construct: laminin from Engelbreth-Holm-Swarm murine sarcoma (Sigma); purchased Sigma; host or cells: Engelbreth-Holm-Swarm murine sarcoma (tissue-derived)
Method: FIG. 17 is an image of the saturation binding of GST-galectin-14 fusion protein to immobilised laminin. Laminin binding of GST-galectin-14 fusion protein was assayed using a solid-phase binding assay in a 96-well microtitre plate. Serial dilutions of GST-galectin-14 (▪) and GST (▴) were added to microtitre wells containing laminin. 0.3 M Lactose was added to GST-galectin-14 to inhibit binding (◯). The level of bound protein was monitored by the binding of rabbit anti-GST HRP antibody developed with TMB substrate and detected by a change in absorbance at 450 nm.
Laminin binding activity was measured according to the method of Mazurek et al. with some modification. Briefly, the wells of a 96-well microtitre plate were coated with laminin from Engelbreth-Holm-Swarm murine sarcoma (Sigma) at 1 μg/100 μl of carbonate coating buffer (15 mM Na2CO3, 35 mM NaHCO3, pH 9.6) per well overnight at 4° C. Non-specific binding sites were blocked with 200 μl of 0.5% Tween 20 in PBS for 1 h. Plates were washed 3 times in 0.05% Tween 20 PBS and incubated with 50 μl serial dilutions of GST-galectin-14 or GST alone, diluted in 0.5% Tween 20 PBS, for 1.5 h at 37° C. Control wells contained 0.3 M lactose. […] The reaction was terminated with 100 μl 2 M sulphuric acid and the colour change monitored using a dual wavelength mode plate reader (Bio-tek instruments) at 450 nm, ref 690 nm.

[3] = SDS-PAGE and Western blot analysis of recombinant galectin-14 after storage; assay type: physicochemical; conditions: storage at high concentrations; reducing conditions
Method: FIG. 10 is an image of SDS-PAGE and Western blot analysis of recombinant galectin-14 and endogenous proteins. […] The arrow points to the position of monomeric galectin-14. All samples were run under reducing conditions. […] Membranes were incubated with mAb supernatant for 2 h at room temperature, followed by incubation with secondary antibody, horseradish peroxidase-conjugated rabbit anti-mouse Ig (Dako, Carpinteria, Calif.), for at least 1 h at room temperature. Signals were detected using 1.5 mM 3,3′-diaminobenzidine tetrahydrochloride (DAB; Sigma), or ECL (Amersham Pharmacia Biotech).

B1: GST-galectin-14: Recombinant galectin-14 expressed in E. coli BL-21 as a GST fusion protein (pGEX-6P-2) (protein)
chain: MQSESGHEGDEELAFRDTQPPYINLPIPFTGRIEGGLQDGHKVTVMGRVLSTDENRFQVDFQMGISDTNNVAFHFNPRFEGSGYVVCNTMQLGNWGPEEKKMQMPFQKGSLFEICFKVDSSSFKVTVNGSIFLDYAHRLPFEQVNAISIGGCVHVSYISFQI
modifications: left off: a dimerising Fc or GST
With B1 the “maximum concentration which did not induce agglutination” value ([1]; batch used in the antibody potentiation assay) was 0.042 µM, the “minimum concentration that gave mat formation (agglutination)” value ([1]; batch used in the saccharide inhibition assay) was 0.28 µM and the “minimum concentration that produced mat formation (agglutination)” value ([1]; different batch, used in the antibody assays) was 0.059 µM. For the same molecule, the “stability of agglutination activity upon storage” value [1] was “did not deteriorate upon storage” and the “binding to immobilised laminin” value [2] was “bound to laminin in a dose dependent manner”.

B2: galectin-14: Ovine proto-type galectin, amino acid sequence <400>2; recombinant form cleaved from GST fusion, with 5 additional N-terminal amino acids (protein)
chain: B1 chain
In the case of B2, the “minimum concentration exhibiting agglutination activity on rabbit erythrocytes” value ([1]; fresh cleaved and purified recombinant protein) is reported as 0.16 µM, the “stability of agglutination activity upon storage” value [1] is reported as “rapidly lost upon storage” and the self-aggregation after storage [3] is reported as “often self-aggregates into oligomers”.
